Laboratory results taken from patent US20230075633A1 (SHANDONG BOAN BIOTECHNOLOGY, published 2023).

Columns and labels:
[1] = molecular target: T1, human CEA (human, UniProt P06731 35-702); test: cell-based or functional assay
T1 sequence (looked up): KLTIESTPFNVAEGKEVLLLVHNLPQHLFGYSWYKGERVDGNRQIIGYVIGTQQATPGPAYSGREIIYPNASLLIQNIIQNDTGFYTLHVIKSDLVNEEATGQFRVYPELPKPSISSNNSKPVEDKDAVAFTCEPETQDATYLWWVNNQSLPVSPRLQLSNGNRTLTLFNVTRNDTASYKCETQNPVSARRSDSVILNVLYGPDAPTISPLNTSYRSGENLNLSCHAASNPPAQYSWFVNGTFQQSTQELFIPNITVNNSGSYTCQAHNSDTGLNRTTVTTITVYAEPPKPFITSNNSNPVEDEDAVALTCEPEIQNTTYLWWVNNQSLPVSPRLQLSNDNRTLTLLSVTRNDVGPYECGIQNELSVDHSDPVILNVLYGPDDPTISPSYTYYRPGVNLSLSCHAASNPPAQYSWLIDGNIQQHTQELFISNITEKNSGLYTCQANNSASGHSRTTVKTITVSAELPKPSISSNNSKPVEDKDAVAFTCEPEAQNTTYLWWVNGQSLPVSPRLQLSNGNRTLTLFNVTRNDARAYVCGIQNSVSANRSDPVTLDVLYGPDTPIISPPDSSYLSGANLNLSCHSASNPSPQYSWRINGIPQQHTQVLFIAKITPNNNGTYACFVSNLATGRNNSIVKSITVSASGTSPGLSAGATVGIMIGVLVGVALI

[2] = molecular target: T2, Cynomolgus monkey CD3 protein (cynomolgus monkey, UniProt Q95LI5 22-117); test: ELISA on cynomolgus monkey CD3 protein, curve fit
T2 sequence (looked up): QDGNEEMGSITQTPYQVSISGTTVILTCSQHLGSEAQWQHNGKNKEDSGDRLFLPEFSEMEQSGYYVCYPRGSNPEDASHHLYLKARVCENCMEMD

[3] = molecular target: T1, human CEA; test: cell-based or functional assay; remark: listed apart in the source
[4] = molecular target: T1, human CEA; test: cell-based or functional assay; remark: listed apart in the source
[5] = molecular target: T3, human CD3 (human, UniProt P07766 23-207); test: cell-based or functional assay
[6] = molecular target: T1, human CEA; test: cell-based or functional assay; remark: listed apart in the source
[7] = molecular target: T3, human CD3; test: flow cytometry on Jurkat cells
Method: (§1) Mean fluorescence intensity (MFI) was determined by Flow cytometry. […] Mean fluorescence intensity (MFI) was determined by Flow cytometry.

[8] = molecular target: T3, human CD3; test: flow cytometry on human PBMC (ND 12)
Method: as §1

T3 sequence (P07766 23-207): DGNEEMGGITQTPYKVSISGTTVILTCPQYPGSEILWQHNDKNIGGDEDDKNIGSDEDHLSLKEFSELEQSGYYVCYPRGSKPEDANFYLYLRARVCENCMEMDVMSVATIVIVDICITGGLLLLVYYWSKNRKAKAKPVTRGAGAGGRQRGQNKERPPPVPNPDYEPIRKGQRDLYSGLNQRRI

- lysis of LS-174T cells by PBMC: Bottom [1]: 12.6
- lysis of LS-174T cells by PBMC: LogEC50 [1]: -2.18
- lysis of LS-174T cells by PBMC: Span [1]: 91.8
- lysis of LS-174T cells by PBMC: Top [1]: 104
- Bottom (best-fit) [2]: 0.00678
- LogEC50 [2]: -1.75
- Span (best-fit) [2]: 4.09
- Top (best-fit) [2]: 4.1
- cytolysis of KATO-III cells by PBMC: EC50 [3]: 0.132 nM
- cytolysis of LS174T cells by PBMC: EC50 [3]: 0.0003 nM
- cytolysis of MKN-45 cells by PBMC: EC50 [3]: 0.0003 nM
- NFAT-luciferase in Jurkat cells: Bottom [5]: 2830
- NFAT-luciferase in Jurkat cells: LogEC50 [5]: -0.154
- NFAT-luciferase in Jurkat cells: Span [5]: 17200
- NFAT-luciferase in Jurkat cells: Top [5]: 20000
- lysis of KATO III cells by PBMC: Bottom [6]: 58.1
- lysis of KATO III cells by PBMC: LogEC50 [6]: -0.194
- lysis of KATO III cells by PBMC: Span [6]: 36.2
- lysis of KATO III cells by PBMC: Top [6]: 94.3
- EC50 [7]: 113 nM
- EC50 [8]: 81 nM
B1: CEA/CD3OPT1a3b2b1 BsAb (bispecific antibody, V domains shown)
VH 1: EVQLVESGGGLVQPGGSLRLSCAASGFNIKDTYMHWVRQAPGKGLEWVARIDPAQGNTKYADSVKGRFTISADTSKNTAYLQMNSLRAEDTAVYYCAPFGYYVSDYAMAYWGQGTLVTVSS
VL 1: DIQLTQSPSSLSASVGDRVTITCRAGESVDIFGVGFLHWYQQKPGKAPKLLIYRASNLESGVPSRFSGSGSRTDFTLTISSLQPEDFATYYCQQTNEDPYTFGQGTKVEIK
VH 2: EVQLVESGGGLVKPGGSLKLSCAASGFTFSTYAMNWVRQAPGKGLEWVARIRSKYNNYATTYADSVKDRFTISRDDSKNTAYLQMNNLRTEDTAVYYCVRHGNWGNSYISYWAYWGQGTTVTVSS
VL 2: not shown
notes: also called CEA/CD3-1a3b2b1-BsAb; Lead CEA/CD3; copies: 2 + 2 + 2 + 2
- killing of LS-174T cells by PBMC at E:T ratio of 5:1 [4]: 20%
